Key:
[1] = molecular target: T1, recombinant fHbp from MC58 with Arg204 changed to histidine (Neisseria meningitidis strain MC58, UniProt E6MV22 27-274); assay: western blot of site-directed mutant of recombinant MC58 fHbp
T1 construct: also called Arg204→His mutant
T1 sequence: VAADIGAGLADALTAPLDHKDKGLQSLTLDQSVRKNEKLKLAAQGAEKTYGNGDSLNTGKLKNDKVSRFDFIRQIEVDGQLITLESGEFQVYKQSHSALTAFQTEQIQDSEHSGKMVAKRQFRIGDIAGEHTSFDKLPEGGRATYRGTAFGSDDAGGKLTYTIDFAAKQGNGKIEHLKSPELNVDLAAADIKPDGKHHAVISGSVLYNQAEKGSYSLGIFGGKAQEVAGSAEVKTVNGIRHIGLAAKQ

[2] = molecular target: T2, fHbp of N. meningitidis strain MC58 (full-length mature factor H binding protein) (Neisseria meningitidis strain MC58, UniProt E6MV22 20-274); assay: western blot on cell extracts; FACS on bacteria
T2 construct: also called MC58 fHbp; protein 741
T2 sequence: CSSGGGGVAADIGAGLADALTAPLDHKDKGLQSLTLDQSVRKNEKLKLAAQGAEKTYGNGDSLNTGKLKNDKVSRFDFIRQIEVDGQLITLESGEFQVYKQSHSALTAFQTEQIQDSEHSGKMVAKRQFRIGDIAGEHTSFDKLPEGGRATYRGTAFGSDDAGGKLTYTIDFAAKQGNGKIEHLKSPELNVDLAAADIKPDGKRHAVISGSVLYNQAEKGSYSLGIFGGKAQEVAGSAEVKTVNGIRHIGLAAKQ

B1: MAb502 (antibody, V domains shown)
VH: EVQLQESGPGLAKPSQTLSLTCSVTGYSITSDFWNWIRKFPGNKLEYMGYISYSGSTDYNPSLKSRISITRDTSKNQYYLQLNSVTAEDTATYYCARYFGSSYAMDHWGQGTSVTVSS
VL: DIQMTQSPASLSASVGETVTITCRASGNIHNYLAWYQQKQGKSPQLLVYTAKTLAEGVPSRFSGSGSGTQFSLKINSLQPEDFGSYYCQHFWSTPWTFGGGTKLEIKR
notes: also called monoclonal anti-fHbp antibody MAb502
binding result [1]: no binding | binding result [2]: binds
